Biological target: T1, amyloid-beta peptide (1-40), freshly prepared synthetic (UniProt P05067 672-711, 125I label when used as tracer; residue not stated)
T1 construct: domain: amyloid-beta peptide (1-40)
Test: radioligand binding to coated microtiter wells

B1: TrcHis-chloramphenicol acetyltransferase (CAT) fusion protein (other)
chain: MEKKITGYTTVDISQWHRKEHFEAFQSVAQCTYNQTVQLDITAFLKTVKKNKHKFYPAFIHILARLMNAHPEFRMAMKDGELVIWDSVHPCYTVFHEQTETFSSLWSEYHDDFRQFLHIYSQDVACYGENLAYFPKGFIENMFFVSANPWVSFTSFDLNVANMDNFFAPVFTMGKYYTQGDKVLMPLAIQVHHAVCDGFHVGRMLNELQQYCDEWQGGA
notes: also called TrcHis-CAT; not shown: N-terminal TrcHis leader of the Invitrogen control construct
binding result: no binding (tested: 100 nM)

— patent US6994974 (TRUSTEES OF COLUMBIA UNIVERSITY IN THE CITY OF NEW YORK, dated 2006)
